# Measurements reported in patent US7829109B2, “Catheter injectable depot compositions and uses thereof” (Durect Corporation, priority 2001, dated 2010).
# Assays:
# [1] = Preliminary stability of PDGF preformulations in the gel vehicle (SEC, rpHPLC); format: physicochemical; conditions: mixed into gel vehicle PLGA RG502/BB/BA 40/45/15, stored at 5° C. for 1 day
# Experimental: All lyophilized protein formulations as listed in Tables 8 and 9, were mixed into a gel vehicle with the composition of PLGA RG502/Benzyl Benzoate (BB)/benzyl alcohol (BA) of 40/45/15 with the loading of the protein formulation about 10 wt %. After being stored at 5° C. for 1 day, the mixtures were extracted with an organic solvent mixture of methylene chloride and acetone (ratio of 50/50) as described in the example 15 above. The purity of the PDGF-BB was analyzed by both reverse phase HPLC (rpHPLC) and size exclusion chromatography (SEC). In general, no distinguishable degradation of the PDGF-BB was found in the PDGF-BB formulation incorporated with the excipients as described in the example 18 and mixed with the gel vehicle of the present invention.
# [2] = Stability of PDGF in the depot formulations (rpHPLC, SEC); format: physicochemical; conditions: day 0
# Experimental: Depot gel PDGF formulations were stored for different periods of time at 5, 25 and 40° C., respectively. At predetermined time points, the depot gel PDGF-BB formulation (0.3 ml) was treated with a cooled organic solvent (a 50/50 mixture of methylene chloride/acetone, at 5° C., 3×3.0 ml). The resulting residual PDGF-BB was dissolved in a PBS buffer (2 ml, pH 7.4) and the purity of the PDGF was analyzed by both reverse phase HPLC (rpHPLC) and size exclusion chromatography (SEC) HPLC. FIGS. 18-20 illustrate the stability of PDGF (% monomer by SEC) in the various depot formulations, including those of the present invention, as a function of time at 5° C. (FIG. 18), 25° C. (FIG. 19) and 40° C. (FIG. 20), respectively. Table 12 summarizes the chemical stability of PDGF tested by rpHPLC in the various depot formulations, including those of the present invention, as a function of time at 5° C., 25° C. and 40° C., respectively. […] Sucrose has a significant stabilizing effect on the various depot formulations of the present invention.
substance,measurement,setting,value
"Bulk PDGF: PDGF-BB bulk solution, i.e., aqueous solution of PDGF in acetate buffer",% PDGF dimer by SEC,[1],0.73%
same,% PDGF monomer by SEC,[1],99.27%
same,% other peaks by rp-HPLC,[1],0.0%
same,% peak at RRT = 0.93 by rp-HPLC,[1],11.1%
same,% peak at RRT = 1.00 by rp-HPLC,[1],87.7%
same,% peak at RRT = 1.10 by rp-HPLC,[1],1.2%
same,RP-HPLC Other Peak(s),[2],0 % Peak Area
same,RP-HPLC Peak at (RRT = 0.93),[2],11.1 % Peak Area
same,RP-HPLC Peak at (RRT = 1.00),[2],87.7 % Peak Area
same,RP-HPLC Peak at (RRT = 1.09),[2],1.2 % Peak Area
